Experimental data from patent US20160287696A1, “PAN POLLEN IMMUNOGENS AND METHODS AND USES FOR IMMUNE RESPONSE MODULATION” (LA JOLLA INSTITUTE FOR ALLERGY AND IMMUNOLOGY, priority 2013, published 2016).

Tests used:
splenocytes [1] = assay: Bystander tolerance induction by prophylactic SLIT in mice, IP sensitization with NTGA 86/51 together with OVA; format: in vivo; conditions: for NTGA 86/51 specific in vitro proliferation of splenocytes vs buffer treated mice: FIG. 4
Source text: Bystander tolerance induction by prophylactic SLIT treatment with A0086 (FIG. 4). The ability of NTGA 86/51 to induce bystander tolerance, i.e. to induce tolerance against a non-related protein was investigated by SLIT treating the mice for two weeks with NTGA 86/51 followed by an IP sensitization with NTGA 86/51 together with the unrelated protein ovalbumin (OVA). Following this splenocytes were stimulated in vitro either with NTGA 86/51to confirm the ability of this protein to induce tolerance towards itself, or with OVA to investigate if NTGA 86/51 can induce bystander tolerance towards an unrelated protein.

[2] = tested on: cultured PBMCs of the allergic donors; assay: ELISPOT of IL-5 or IFNg production by cultured PBMCs of TG allergic donors in response to peptide; format: cell-based, human; conditions: NTGA number given = criterion met; TG allergic donors n=20
Procedure, shortened: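 PBMCs from Timothy grass-allergic donors (n=20), expanded in vitro with TG extract (50 μg/mL) or peptide pool, then plated at 1×10^5 cells/well with single 15-mer peptide (10 μg/mL). IL-5 or IFNg measured by ELISPOT; peptide response positive at ≥20 SFCs/10^6 PBMCs, P .05, stimulation index ≥2; value is number of responding donors.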

splenocytes [3] = assay: Sensitization pattern: in vitro proliferation (3H-thymidine) of splenocytes of mice sensitized to Phl p extract; format: cell-based, BALB/c mice; conditions: mice sensitized IP with Phl p extract; 6 days stimulation
Source text: Initially, the sensitization pattern of an immunogen of the invention (NTGA 86/51) was investigated in BALB/c mice sensitized to Phl p extract (FIG. 2). For the purposes of these studies, the immunogen were expressed in E. Coli using standard expression protocols.
Mice were sensitized by one intraperitoneal injection with Phl p extract adsorbed to aluminium hydroxide. Eleven days later the mice were euthanized and splenocytes were stimulated in vitro with Phl p extract, Phl p 1, Phl p 5, NTGA 86/51. The cells were incubated for 6 days at 37° C. under 5% CO2 and incorporated 3H-thymidine was counted and used as a measure for T cell proliferation.

splenocytes [4] = assay: Prophylactic SLIT tolerance induction in mice, splenocyte proliferation; format: in vivo, BALB/c mice; conditions: prophylactic SLIT two weeks
Source text: Then the tolerance induction of NTGA 86/51 was investigated in a prophylactic mice model using sublingual administration (FIG. 3)
The ability of NTGA 86/51 and NTGA 6 to induce prophylactic tolerance was investigated by SLIT treating naive BALB/c mice with NTGA 86/51 or NTGA 6 for two weeks (Monday-Friday) followed by one Phl p extract sensitization or sensitization to the immunogen itself (NTGA 86/51 or NTGA 6) as described above. Eleven days after the sensitization, splenocytes were harvested and stimulated in vitro with NTGA 86/51 as well as Phl p extract.

| Molecule | NTGA 86/51 specific in vitro proliferation of splenocytes vs buffer treated mice (splenocytes [1]) | NTGA's containing at least one T cell epitope, Th+ (Col 2) [2] | in vitro T-cell response (splenocyte proliferation) compared to the response to Phl p 5 (splenocytes [3]) | in vitro T-cell response (splenocyte proliferation) compared to the response towards the Phl p extract (splenocytes [3]) | tolerance towards the immunogen itself (proliferation of splenocytes vs buffer (sham) treated mice) (splenocytes [4]; FIG. 3A / 3C) | tolerance towards Phl p extract (proliferation of splenocytes vs buffer (sham) treated mice) (splenocytes [4]; FIG. 3B) | OVA specific in vitro proliferation of splenocytes vs buffer treated mice (bystander tolerance) (splenocytes [1]; FIG. 4B) |
| --- | --- | --- | --- | --- | --- | --- | --- |
| ovalbumin (protein, UniProt P01012 2-386, looked up, unrelated protein ovalbumin used as model allergen) Ovalbumin: GSIGAASMEFCFDVFKELKVHHANENIFYCPIAIMSALAMVYLGAKDSTRTQINKVVRFDKLPGFGDSIEAQCGTSVNVHSSLRDILNQITKPNDVYSFSLASRLYAEERYPILPEYLQCVKELYRGGLEPINFQTAADQARELINSWVESQTNGIIRNVLQPSSVDSQTAMVLVNAIVFKGLWEKAFKDEDTQAMPFRVTEQESKPVQMMYQIGLFRVASMASEKMKILELPFASGTMSMLVLLPDEVSGLEQLESIINFEKLTEWTSSNVMEERKIKVYLPRMKMEEKYNLTSVLMAMGITDVFSSSANLSGISSAESLKISQAVHAAHAEINEAGREVVGSAEAGVDAASVSEEFRADHPFLFCIKHIATNAVLFFGRCVSP | able to downregulate | – | – | – | – | – | – |
| NTGA 86/51: Phl p wild type full length protein from which PG+ peptides of NTGA's 86 and 51 derive (protein, Phleum Pratense, Phl p wild type full length protein from which PG+ peptides of NTGA's 86 and 51 derive) MSPAEPTREESVYMAKLAEQAERYEEMVEFMERVAKATGGAGPGEELSVEERNLLSVAYKNVIGARRASWRIISSIEQKEEGRGNDAHATTIRSYRSKIEAELAKICDGILALLDSHLVPSAGAAESKVFYLKMKGDYHRYLAEFKSGAERKEAAESTMNSYKAAQDIALADLAPTHPIRLGLALNFSVFYYEILNSPDRACNLAKQAFDEAISELDSLGEESYKDSTLIMQLLRDNLTLWTSDTNEDGGDEIKEAPAPKESGD | reduced proliferation | 86/51 | much weaker | much weaker | capable of inducing tolerance towards the immunogen itself | capable of inducing tolerance | decreased |
